Results reported in publication PMC2965120, “Ribonucleoprotein Particles Containing Non-Coding Y RNAs, Ro60, La and Nucleolin Are Not Required for Y RNA Function in DNA Replication”.

Assays:
La = target: T1, La (human, UniProt P05455 1-408); test: EMSA; 10-fold molar excess competitor tRNA; >90% of RNA shifted at 1:1 protein:RNA; 10 mM Tris-HCl pH 7.5, 100 mM NaCl, 3 mM MgCl2, 1 mM DTT, 10-fold molar excess tRNA, 80 ng hY1 RNA, 15 min at 37 C; native 8% PAGE at 4 C; conditions: protein: recombinant; label: 32P (alpha-32P UTP, internal)
T1 sequence: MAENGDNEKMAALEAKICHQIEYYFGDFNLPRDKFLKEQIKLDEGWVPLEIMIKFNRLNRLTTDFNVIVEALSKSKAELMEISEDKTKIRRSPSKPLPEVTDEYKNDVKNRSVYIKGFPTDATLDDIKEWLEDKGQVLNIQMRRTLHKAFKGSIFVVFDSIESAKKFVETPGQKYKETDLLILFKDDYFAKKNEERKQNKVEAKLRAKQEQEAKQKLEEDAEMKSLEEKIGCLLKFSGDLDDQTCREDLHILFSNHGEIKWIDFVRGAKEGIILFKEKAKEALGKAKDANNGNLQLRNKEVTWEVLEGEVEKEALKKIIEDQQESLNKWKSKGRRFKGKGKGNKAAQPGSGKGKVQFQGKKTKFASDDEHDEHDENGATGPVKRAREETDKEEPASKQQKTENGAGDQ

Ro60;La = Ro60;La (human;human, UniProt P10155;P05455 1-538;1-408, |); test: EMSA; 10-fold molar excess competitor tRNA; RNA:Ro60:La 1:4:4; super-shift, ternary complex; 10 mM Tris-HCl pH 7.5, 100 mM NaCl, 3 mM MgCl2, 1 mM DTT, 10-fold molar excess tRNA, 80 ng hY1 RNA, 15 min at 37 C; native 8% PAGE at 4 C; conditions: protein: recombinant;recombinant; copies: 1;1; label: 32P (alpha-32P UTP, internal)
Ro60;La, sequence (P10155 whole entry, one chain of several): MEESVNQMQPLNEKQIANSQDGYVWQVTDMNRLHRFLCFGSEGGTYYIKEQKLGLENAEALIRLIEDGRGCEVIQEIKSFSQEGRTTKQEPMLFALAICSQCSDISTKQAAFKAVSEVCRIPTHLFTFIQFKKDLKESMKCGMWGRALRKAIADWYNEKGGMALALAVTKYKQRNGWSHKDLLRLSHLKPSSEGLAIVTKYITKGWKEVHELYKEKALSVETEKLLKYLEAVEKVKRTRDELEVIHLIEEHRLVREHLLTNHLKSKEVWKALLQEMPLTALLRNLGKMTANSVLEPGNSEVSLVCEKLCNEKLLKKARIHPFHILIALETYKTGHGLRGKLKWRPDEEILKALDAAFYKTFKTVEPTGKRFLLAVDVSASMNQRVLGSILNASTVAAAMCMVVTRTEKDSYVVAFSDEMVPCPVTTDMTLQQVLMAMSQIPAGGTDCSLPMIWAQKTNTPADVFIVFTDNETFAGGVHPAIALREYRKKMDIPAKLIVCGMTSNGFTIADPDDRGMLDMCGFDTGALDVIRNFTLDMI

Ro60 = Ro60 (human, UniProt P10155 1-538); test: EMSA; 10-fold molar excess competitor tRNA; about 30-40% of RNA shifted at 4:1 protein:RNA; 10 mM Tris-HCl pH 7.5, 100 mM NaCl, 3 mM MgCl2, 1 mM DTT, 10-fold molar excess tRNA, 80 ng hY1 RNA, 15 min at 37 C; native 8% PAGE at 4 C; conditions: protein: recombinant; tags: poly-His (pET28a); label: 32P (alpha-32P UTP, internal)
Ro60, sequence (P10155 whole entry): as the sequence (P10155 whole entry, one chain of several) above

Measured: binding result

B1: hY1 RNA (structured_RNA)
RNA: GGCUGGUCCGAAGGUAGUGAGUUAUCUCAAUUGAUUGUUCACAGUCAGUUACAGAUCGAACUCCUUGUUCUACUCUUUCCCCCCUUCUCACUACUGCACUUGACUAGUCUUU
binds: La | Ro60;La | Ro60
